Results as given in patent US20140079722A1, “EXTRACELLULAR TARGETED DRUG CONJUGATES” (CENTROSE, LLC, priority 2011, published 2014).

Experiments:
[1] = tested on: A375; experiment: In vitro cancer cell cytotoxicity (CellTiter-Glo cell viability); assay type: cell-based, human; details: A375 cells, 3 days incubation
From the text: (§1) EDCs were constructed using linker-ready agents PEG24-CEN09-106, PEG24-CEN09-107, PEG24-CEN10-110 and PEG24-CEN-319. As described in Example 1, linker-ready agent PEG24-CEN-319 contain digitoxigenin while the others contain scillarenin. Linker-ready agents PEG24-CEN09-106, PEG24-CEN09-107, PEG24-CEN10-110 all use different linkers. Specifically, PEG24-CEN09-106 and PEG24-CEN09-107 have different sugars in the linker, while PEG24-CEN10-110 contains a longer linker that includes a primary amine.
(§2) All of the cell lines below, except H520, express the Na,K-ATPase with the dysadherin subunit and so present the target of the antibody and drug in close proximity.

[2] = tested on: A549; experiment: as above; assay type: cell-based, human; details: A549 cells, 3 days incubation
From the text: as §1, §2

[3] = tested on: PANC1; experiment: as above; assay type: cell-based, human; details: PANC cells, 3 days incubation
From the text: as §1, §2

[4] = tested on: human cell lines H460, A549, A375, PANC1, and H929; experiment: In vitro cancer cell cytotoxicity, statements over the cell line panel; assay type: cell-based; details: at the highest concentrations tested
From the text: as §1, §2

[5] = Pharmacokinetics with varying drug loading (antigen binding ELISA); assay type: in vivo; details: unconjugated antibody, 1 mg/kg tail vein, SCID beige mice
Method: Serum was isolated from blood samples taken by retro-orbital blood collection at 1 hour, and 1, 2, 3, 6, and 15 days post-injection. Blood was collected into heparin coated tubes followed by centrifugation (5,000×g, 5 minutes) to isolate plasma.
Antigen capture plates that were prepared by coating wells of 96 well clear bottom ELISA plates with CENP018 (SEQ ID NO: 17) conjugated to BSA at 400 ng BSA-peptide conjugate per well in 100 uL of 200 mM carbonate buffer, pH 9.6 overnight at 4° C. Antigen coated ELISA plates were washed (×3) with PBS pH 7, blocked 30 min with PBS pH 7 containing 1% NFDM (PBS+NFDM), and then washed (×3) with PBS, pH 7. […] Goat anti-mouse IgG alkaline phosphatase (cat. number: A1418, Sigma-Aldrich, St. Louis, Mo.) was diluted 1:15,000 in PBS+NFDM and added (100 uL) to each well, incubated 30 min at RT, and the wells washed (×3) with PBS, pH 7. PNPP at 1 mg/mL in 1M DEA with 50 mM MgCl2, pH 9.8 was added (100 uL per well), and the absorbance at 405 nm was determined using a Wallac Victor^2 Model 1420-041 assay plate reader (Perkin Elmer, Gaithersburg, Md.) every 5 minutes for a total of 6 reads. Absorbance values from known antibody concentration standards were used to determine the concentration of antibody in the serum samples.

[6] = Pharmacokinetics and serum stability, antibody and drug specific ELISA; assay type: in vivo, Balb/c mice; details: Balb/c mice, EDC drug loading of 3
Method: The steroid drug pharmacokinetics of M53-PEG24-CEN09-106 were measured using the drug specific ELISA described below. The comparison between the two ELISA results (antibody concentrations minus drug concentrations) was used to determine the rate of drug breakdown and thus examine M53-PEG24-CEN09-106 stability.
Serum was isolated from blood samples acquired by retro-orbital blood collection at 1, 2, 4, 8, 16, 26, and 40 days post-injection. […] Plasma concentrations of the steroid drug in M53-PEG24-CEN09-106 were measured as follows. Antigen coated ELISA plates were washed (×3) with PBS pH 7, blocked 30 min with PBS pH 7 containing 1% NFDM (PBS+NFDM), and then washed (×3) with PBS, pH 7. Diluted serum samples and standard curves of M53-PEG24-CEN09-106 were prepared in the above blocking buffer and applied to coated wells, incubated 30 min at RT, and the wells were washed (×3) with PBS, pH 7. Biotinylated 25C2E3 (a monoclonal IgG1 antibody specific for the steroid portion of PEG24-CEN09-106 and conjugated to biotin [Thermo Scientific, PN 21911]) was diluted to 100 ng/mL in PBS+NFDM and added (100 uL) to each well, incubated 30 min at RT, and the wells washed (×3) with PBS, pH 7. PNPP at 1 mg/mL in 1M DEA with 50 mM MgCl2, pH 9.8 was added (100 uL per well), and the absorbance at 405 nm was determined using a Wallac Victor^2 Model 1420-041 assay plate reader (Perkin Elmer, Gaithersburg, Md.) every 5 minutes for a total of 6 reads.
For both ELISAs, absorbance values from known standards were plotted as absorbance over time, generating a linear slope for each concentration. The slopes generated were then plotted against the respective concentrations of the standards, creating a second linear plot. The absorbance values for the unknown serum samples were plotted over time, establishing a slope for unknown sample. The linear estimate from the slope versus concentration plot was then used to extrapolate concentrations for each unknown sample based on their slope.
To determine serum stability of the intact EDC (drug release from the antibody over time) in these samples, the ratio of the slopes of serum decay of the drug portion to the serum decay of the antibody portion were calculated.

B1: M53 (antibody)
heavy: EVQLVESGGGLVQPKGTLKLSCAASGFSFNTHAMNWVRQAPGKSLEWVARTMSKSNNYATYYADSVKDRFIIRADDSQSMLYLQMNNLKTEDTAMYYCVRDDPKRGMDYWGQGTSVTVSSAKTTPPSVYPLAPGSAAQTNSMVTLGCLVKGYFPEPVTVTWNSGSLSSGVHTFPAVLQSDLYTLSSSVTVPSSTWPSETVTCNVAHPASSTKVDKKIE
light: GIVMSQSPSSLAVSVGEKVTMSCKPSQSLLYSRNQKIYLAWYQQKPGQSPKLLIYWASTRESGVPDRFTGSGSGTDFTLIISSVRAEDLAVYYCQQYYNYPLTFGAGTKLELKRADAAPTVSIFPPSSEQLTSGGASVVCFLNNFYPKDINVKWKIDGSERQNGVLNSWTDQDSKDSTYSMSSTLTLTKDEYERHNSYTCEATHKTSTSPIVKSFNR
- EC50 [1]: > 2000 nM
- EC50 [2]: > 5 µM
- EC50 [3]: > 5 µM
- cytotoxicity of antibody alone [4]: inactive
- serum half-life of detectable (by antigen binding) antibody [5]: approximately 6 days
- serum half-life of the antibody portion ([6]; 1 mg/kg tail vein): 11.9 days
- serum half-life of the antibody portion ([6]; 10 mg/kg tail vein): 10.3 days
